Test results: article PMC2776932 (The Febs Journal, 2009)

Molecular target: T1, GFP-tagged Lsm188p (Lsm8p with the N-terminal domain of Lsm1p) (S. cerevisiae, UniProt P47017 1-51; P47093 11-109)
T1 chain (looked up): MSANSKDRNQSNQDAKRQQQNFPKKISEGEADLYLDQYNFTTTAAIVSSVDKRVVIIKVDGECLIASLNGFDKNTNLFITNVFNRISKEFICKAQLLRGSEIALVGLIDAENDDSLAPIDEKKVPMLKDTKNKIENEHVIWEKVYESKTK
Assay: co-IP

reduction of co-precipitated Lsm7p against wild-type: > 50 % reduction
B1: Lsm7–Myc (genomically encoded Lsm7p with 13myc tag) (natural protein, S. cerevisiae, UniProt P53905 1-115, looked up)
chain: MHQQHSKSENKPQQQRKKFEGPKREAILDLAKYKDSKIRVKLMGGKLVIGVLKGYDQLMNLVLDDTVEYMSNPDDENNTELISKNARKLGLTVIRGTILVSLSSAEGSDVLYMQK
